# Laboratory results as given in US5597705.
# Assays:
# [1] = system: thyroid hormone (T3) receptor, GC2 nuclear extract (Rattus norvegicus); experiment: cell_activity; details: G29TK one copy, T3 stimulation of CAT in GC2 cells; three copies five-fold
# [2] = system: glucocorticoid receptor alpha (hGR, pRShGR-alpha) (Homo sapiens); experiment: cell_activity; details: CAT activity with DEX in CV-1 cells; wild-type reference
# [3] = system: thyroid hormone (T3) receptor, GC2 nuclear extract (Rattus norvegicus); experiment: pulldown; details: equilibrium binding constant by ABCD assay; buffer A, poly(dI-dC), 22 C
substance,measurement,setting,value
G186-158 (rat GH -186 to -158),activity,[1],2.9 fold
MMTV LTR (GMCAT),activity,[2],100%
G209-146 (rat GH -209 to -146),Kd,[3],1.4 nM
